The first data set has as its target T1, myostatin (Homo sapiens, UniProt O14793).
T1 construct: To produce mature myostatin, the pooled promyostatin was enzymatically cleaved between the propeptide and mature myostatin C terminal; made in house
T1 sequence (O14793 267-375): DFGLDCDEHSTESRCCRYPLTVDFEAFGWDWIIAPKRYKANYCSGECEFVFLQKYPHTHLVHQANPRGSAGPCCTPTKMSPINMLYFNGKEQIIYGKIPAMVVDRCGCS
Description: C2C12 pMARE-luc cell based myostatin activity assay.
Conditions: not given
From the text:
The antagonists including the binding agents described herein can be tested for their ability to bind myostatin and inhibit or block myostatin activity. Any number of assays or animal tests may be used to determine the ability of the agent to inhibit or block myostatin activity. Several assays used for characterizing the peptides and peptibodies of the present invention are described in the Examples below. One assay is the C2C12 pMARE-luc assay which makes use of a myostatin-responsive cell line (C2C12 myoblasts) transfected with a luciferase reporter vector containing myostatin/activin response elements (MARE). Exemplary peptibodies are assayed by pre-incubating a series of peptibody dilutions with myostatin, and then exposing the cells to the incubation mixture. The resulting luciferase activity is determined, and a titration curve is generated from the series of peptibody dilutions. The IC50 (the concentration of peptibody to achieve 50% inhibition of myostatin activity as measured by luciferase activity) was then determined. A second assay described below is a BIAcore® assay to determine the kinetic parameters ka (association rate constant), kd (dissociation rate constant), and KD (dissociation equilibrium constant) for the myostatin binding agents and other antagonists such as antibodies capable of binding myostatin and its receptor. Lower dissociation equilibrium constants (KD, expressed in nM) indicated a greater affinity of the peptibody for myostatin. […] These assays are described in Example 3.
C2C12 Cell Based Myostatin Activity Assay
A myostatin-responsive reporter cell line was generated by transfection of C2C12 myoblast cells (ATCC No: CRL-1772) with a pMARE-luc construct. The pMARE-luc construct was made by cloning twelve repeats of the CAGA sequence, representing the myostatin/activin response elements (Dennler et al. EMBO 17: 3091-3100 (1998)) into a pLuc-MCS reporter vector (Stratagene cat #219087) upstream of the TATA box. The myoblast C2C12 cells naturally express myostatin/activin receptors on its cell surface. When myostatin binds the cell receptors, the Smad pathway is activated, and phosphorylated Smad binds to the response element (Macias-Silva et al. Cell 87:1215 (1996)), resulting in the expression of the luciferase gene. Luciferase activity is then measured using a commercial luciferase reporter assay kit (cat # E4550, Promega, Madison, Wis.) according to manufacturer's protocol. A stable line of C2C12 cells that had been transfected with pMARE-luc (C2C12/pMARE clone #44) was used to measure myostatin activity according to the following procedure.
Equal numbers of the reporter cells (C2C12/pMARE clone #44) were plated into 96 well cultures. A first round screening using two dilutions of peptibodies was performed with the myostatin concentration fixed at 4 nM. Recombinant mature myostatin was preincubated for 2 hours at room temperature with peptibodies at 40 nM and 400 nM respectively. The reporter cell culture was treated with the myostatin with or without peptibodies for six hours. Myostatin activity was measured by determining the luciferase activity in the treated cultures. This assay was used to initially identify peptibody hits that inhibited the myostatin signaling activity in the reporter assay. Subsequently, a nine point titration curve was generated with the myostatin concentration fixed at 4 nM. The myostatin was preincubated with each of the following nine concentrations of peptibodies: […], 0.4 nM, 4 nM, 20 nM, 40 nM, 200 nM, 400 nM, 2 uM and 4 uM for two hours before adding the mixture to the reporter cell culture. The IC50 values were for a number of exemplary peptibodies are provided in Tables III and for affinity matured peptibodies, in Table VIII.
As to “L2: peptibody; peptide MEMLDSLFELLKDMVPISKA”, the “inhibition of myostatin activity in cell-based assay” value was “inhibit myostatin activity”.

The same data set, now with this note: affinity matured peptibodies; a range of values is given.
“1× mTN8-19-21: 1× affinity-matured peptibody; peptide SEYQGLCTRWPWMCPPQGWK” registered an IC50 of 2.77 to 3.6 nM.
The substance “1× mTN8-19-22: 1× affinity-matured peptibody; peptide TFSQGHCTRWPWMCPPQGWG” had an IC50 of 1.93 to 3.26 nM.
The substance “1× mTN8-19-32: 1× affinity-matured peptibody; peptide VADHGHCTRWPWMCPPQGWG” returned an IC50 of 1.84 to 3.35 nM.
The same measure, in the same setting: the result for “1× mTN8-19-33: 1× affinity-matured peptibody; peptide PESQGHCTRWPWMCPPQGWG” reads 2.15 to 2.75 nM; that for “mTN8-19 con1: affinity-matured peptibody; peptide VATQGQCTRWPWMCPPQGWG”, 1 to 4.4 nM; that for “mTN8-19-2: affinity-matured peptibody; peptide YPEQGLCTRWPWMCPPQTLA”, 7.51 to 34.4 nM.
Still for that read-out and setting: the result for “mTN8-19-4: affinity-matured peptibody; peptide MITQGQCTRWPWMCPPQPSG” reads 16.7 nM; that for “mTN8-19-5: affinity-matured peptibody; peptide AGAQEHCTRWPWMCAPNDWI”, 3.5 to 7.74 nM; that for “mTN8-19-6: affinity-matured peptibody; peptide GVNQGQCTRWRWMCPPNGWE”, 17.3 nM.
Still for that read-out and setting: the result for “mTN8-19-9: affinity-matured peptibody; peptide TQTHAQCTRWPWMCPPQWEG” reads 18.8 to 23 nM.
“mTN8-19-10: affinity-matured peptibody; peptide VVTQGHCTLWPWMCPPQRWR”: the half-maximal inhibitory concentration (IC50) was 5.25 to 7.4 nM.
On the same count and under the same terms, under “mTN8-19-11: affinity-matured peptibody; peptide IYPHDQCTRWPWMCPPQPYP” stands 28.7 nM; under “mTN8-19-12: affinity-matured peptibody; peptide SYWQGQCTRWPWMCPPQWRG”, 980 nM; under “mTN8-19-13: affinity-matured peptibody; peptide MWQQGHCTRWPWMCPPQGWG”, 20 nM.
As to “mTN8-19-14: affinity-matured peptibody; peptide EFTQWHCTRWPWMCPPQRSQ”, the IC50 was in the range of 4.07 to 6.56 nM.
On the same count and under the same terms, under “mTN8-19-16: affinity-matured peptibody; peptide YQTQGLCTRWPWMCPPQSQR” stands 4.65 nM; under “mTN8-19-23: affinity-matured peptibody; peptide PGAHDHCTRWPWMCPPQSRY”, 6.58 nM; under “mTN8-19-24: affinity-matured peptibody; peptide VAEEWHCRRWPWMCPPQDWR”, 1.67 to 2.93 nM.
For “mTN8-19-27: affinity-matured peptibody; peptide ADTQGHCTRWPWMCPPQHWF”, the IC50 is 4.84 to 4.92 nM.
Same read-out and setting: under “mTN8-19-28: affinity-matured peptibody; peptide SGPQGHCTRWPWMCAPQGWF” stands 4.39 nM.
Same read-out and setting: under “mTN8-19-29: affinity-matured peptibody; peptide TLVQGHCTRWPWMCPPQRWV” stands 6.36 nM; under “mTN8-19-34: affinity-matured peptibody; peptide IPAHGHCTRWPWMCPPQRWR”, 5.03 to 5.07 nM.

Staying with this data set, now noted: pMARE luc cell-based assay, myostatin 4 nM.
The substance “Linear-20: peptibody; peptide YREMSMLEGLLDVLERLQHY” came in with an IC50 of around 11 nM.
As for “TN12-34: peptibody; peptide AHWCEQGPWRYGNICMAY”, the IC50 is around 30 nM.

For the next data set, the system named is CD1 nu/nu mice. Briefly: In vivo anabolic activity in CD1 nu/nu mouse model. Particulars: 1× peptibody; 1, 3, 10 mg/kg s.c. twice or once weekly, 14 days, vs huFc control. From the text:
In Vivo Anabolic Activity of Exemplary Peptibodies
The CD1 nu/nu mouse model (Charles River Laboratories, Massachusetts) was used to determine the in vivo efficacy of the peptibodies of the present invention which included the human Fc region (huFc). This model responded to the inhibitors of the present invention with a rapid anabolic response which was associated with increased dry muscle mass and an increase in myofibrillar proteins but was not associated with accumulation in body water content.
A group of 10 8 week old CD1 nu/nu mice were treated twice weekly or once weekly with dosages of 1 mg/kg, 3 mg/kg and 10 mg/kg (subcutaneous injection). The control group of 10 8 week old CD1 nu/nu mice received a twice weekly (subcutaneous) injection of huFc (vehicle) at 10 mg/kg. The animals were weighed every other day and lean body mass determined by NMR on day 0 and day 13. The animals are then scarified at day 14 and the size of the gastrocnemius muscle determined.
In another example, the 1× mTN8-19-32 peptibody was administered to CD1 nu/nu mice in a biweekly injection of 1 mg/kg, 3 mg/kg, 10 mg/kg, and 30 mg/kg compared with the huFc control (vehicle).
CD1 nu/nu male mice (10 animals per group) were treated with twice weekly injections of 1 mg/kg and 3 mg/kg of 1× mTN8-19-7 and 2× mTN8-19-7 for 35 days, while the control group (10 animals) received twice weekly injections of huFc (3 mg/kg).
Consider “1× mTN8-19-21: 1× affinity-matured peptibody; peptide SEYQGLCTRWPWMCPPQGWK”, for which the total body weight result is “increase in body weight compared with the control”.

The data set is the same for the next values; noted with them: biweekly injection 1, 3, 10, 30 mg/kg vs huFc control.
Regarding “1× mTN8-19-32: 1× affinity-matured peptibody; peptide VADHGHCTRWPWMCPPQGWG”, the total body weight entry is on record as “increase in total body weight”.

Staying with this data set, now noted: biweekly injection 1, 3, 10, 30 mg/kg; day 13 compared with day 0.
As for “1× mTN8-19-32: 1× affinity-matured peptibody; peptide VADHGHCTRWPWMCPPQGWG”, the “lean body mass (NMR)” value is “increase”.

Tested on in a further data set: not listed separately
Briefly: In vivo pharmacokinetics in CD1 nu/nu mice. The arrangement: species or system mouse. Particulars: 10 mg/kg and 5 mg/kg, peptibodies without LE sequences. As for the experimental part: In vivo pharmacokinetics experiments were performed using representative peptibodies without the LE sequences.
Consider “1× mTN8-19-7: 1× affinity-matured peptibody; peptide LADHGQCIRWPWMCPPEGWE”, for which the half-life entry is “about 65 hours”.
Regarding “1× mTN8-19-22: 1× affinity-matured peptibody; peptide TFSQGHCTRWPWMCPPQGWG”, the half-life result was “about 50.2 hours”.

A further data set concerns mdx mice. Briefly: Treatment of aged mdx mice (Duchenne muscular dystrophy model). The settings on record: 10 mg/kg s.c. every other day, three months, vs huFc. Format: in vivo, mouse. As for the experimental part: Muscular dystrophy is one of those disorders. The mouse model for Duchenne's muscular dystrophy is the Duchenne mdx mouse (Jackson Laboratories, Bar Harbor, Me.). Aged (10 month old) mdx mice were injected with either the peptibody 1× mTN8-19-33 (n=8/group) or with the vehicle huFc protein (N=6/group) for a three month period of time. The dosing schedule was every other day, 10 mg/kg, by subcutaneous injection.
For “1× mTN8-19-33: 1× affinity-matured peptibody; peptide PESQGHCTRWPWMCPPQGWG”, the body weight entry is “Significant increases in body weight”, the “fat percentage of body weight” value is given as “decreased” and the “lean body mass to fat mass ratio (NMR)” value is “significantly increased”.

The values are drawn from patent publication US20160038588A1, “Myostatin Antagonism in Human Subjects” (AMGEN INC., priority 2013, published 2016).
